Test [1] concerns the target T1, GST-human NOGO-A56 (human, UniProt Q9NQC3 586-785).
T1 construct: also called hNOGO; recombinant human NOGO; not shown: Glutathione S-transferase (GST) tag encoded by vector pGEX-6P1, N-terminal to the NOGO-A fragment; the tag and linker se
T1 sequence: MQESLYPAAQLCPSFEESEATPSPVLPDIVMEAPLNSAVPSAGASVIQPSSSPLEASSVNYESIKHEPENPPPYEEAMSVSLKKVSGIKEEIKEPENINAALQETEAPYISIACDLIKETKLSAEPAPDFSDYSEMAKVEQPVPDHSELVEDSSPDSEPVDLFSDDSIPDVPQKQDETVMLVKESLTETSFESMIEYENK
The test is described as follows: SPR (Biacore 3000), GST-human NOGO-A56 on CM5 chip, antibody as analyte; single experiment. The procedure:
(§1) The binding kinetics of the anti-NOGO monoclonal antibody (mAb) to recombinantly expressed human NOGO-A (GST-human NOGO-A56) was analysed using the Biacore3000 biosensor. The hNOGO-A chip was prepared as follows:
(§2) hNOGO (GST-human NOGO-A56) was immobilised to a CM5 chip by primary amine coupling using the Biacore Wizard program designed for targeted immobilisation levels. The CM5 sensor surface was activated by passing a solution of 50 mM N-hydroxy-succinimide (NHS) and 200 mM N-ethyl-N′-dimethylaminopropyl […] (EDC). Then hNOGO in sodium acetate buffer, pH5.0 or pH 4.5, was passed over the chip and immobilised. After immobilisation was complete any still activated esters were blocked by an injection of 1M ethanolamine hydrochloride, pH8.5.
(§3) The anti-NOGO mAbs were diluted down in HBS-EP (10 mM HEPES, pH 7.4, 150 mM NaCl, 3 mM EDTA, and 0.005% P-20 surfactant) and binding studies were carried out at range of defined antibody concentrations. All runs were referenced against a blanked sensor surface (one that had been activated and blocked as described earlier but had no addition of ligand). Analysis of binding was carried out using the BIAevaluation kinetic analysis software version 4.1. Biacore analysis of other antibodies of the invention essentially followed the same protocol as described herein.
(SPR reads the build-up and loss of mass on a sensor chip optically.)

In test [2] the target is T1, GST-human NOGO-A56. Briefly: SPR (Biacore 3000), GST-human NOGO-A56 amine-coupled to CM5 chip, antibody as analyte; mean (SD) of four experiments. The procedure: as §1, §2, §3
In test [3] the target is T1, GST-human NOGO-A56. The test is described as follows: SPR off-rate ranking (Biacore), CHO-K1 transfection supernatant over GST-human NOGO-A56 chip; mean (SD) of three experiments. The procedure: as §2
(§4) The hNOGO chip was prepared as for kinetic analysis. Cell supernatants where taken directly from transient transfections of CHO—K1 cells. These were passed directly over the sensor surface and the interaction measured. A mock transfected cell supernatant was used for double referencing to remove any artefacts due to the tissue culture media. All runs were referenced against a blanked sensor surface (one that had been activated and blocked as described earlier but had no addition of ligand). Analysis of binding was carried out using the BIAevaluation kinetic analysis software version 4.1.

The target of test [4] is T1, GST-human NOGO-A56. Briefly: SPR (Biacore 3000), GST-human NOGO-A56 on CM5 chip, antibody as analyte; mean (SD) of two experiments. The procedure:
as §1, §2, §3

The target in test [5] is T1, GST-human NOGO-A56. Briefly: SPR off-rate ranking (Biacore), CHO-K1 transfection supernatant over GST-human NOGO-A56 chip; single experiment. The procedure:
as §2, §4

Numbering of substitutions follows the chain as printed.

Broadly, the koff is a measure of how fast the partners let go of each other. What is called kon is a measure of how fast the partners come together. Low readings indicate slow association, high ones fast association. Usually Kd stands for the constant that tells how readily two partners part at equilibrium. A high value points to lower affinity.

B1: H1L11 (antibody, human IgG1, kappa, V domains shown)
VH: QVQLVQSGAEVKKPGASVKVSCKASGYTFTSYWMHWVRQAPGQGLEWMGNINPSNGGTNYNEKFKSRVTMTRDTSTSTVYMELSSLRSEDTAVYYCELGQGYWGQGTLVTVSS
VL: DIVITQSPLSLPVTLGQPASISCRSSKSLLYKDGKTYLNWFQQRPGQSPQLLIYLMSTRASGVPDRFSGGGSGTDFTLKISRVEAEDVGVYYCQQLVEYPLTFGQGTKLEIKR
notes: human gamma-1 mutated constant region, human kappa
In the test with GST-human NOGO-A56 [1], B1 gave a koff of 0.0284 s⁻¹ and an on-rate (kon) of 1.33e+06 M⁻¹ s⁻¹. In the test with GST-human NOGO-A56 [2], binding was characterised by a dissociation constant (Kd) of 18.6 nM, the dissociation rate constant (koff) is 0.0314 s⁻¹ and the on-rate constant (kon) was determined as 1.73e+06 M⁻¹ s⁻¹. The molecule also yielded a koff with GST-human NOGO-A56 [3] of 0.0403 s⁻¹.

B2: H6Lc (antibody, human IgG1, kappa, V domains shown)
VH: B1 VH with M48I, V68A, V79A
VL: DIVITQDELSNPVTSGESVSISCRSSKSLLYKDGKTYLNWFLQRPGQSPQLLIYLMSTRASGVSDRFSGSGSGTDFTLEISRVKAEDVGVYYCQQLVEYPLTFGAGTKLELKR
notes: Humanised heavy chain H6 paired with chimeric light chain Lc; For the light chain start see the note on HcLc
With B2, in the test with GST-human NOGO-A56 [4], the dissociation constant (Kd) came to 2.21 nM, the koff came out at 0.00284 s⁻¹ and the kon was 2.17e+06 M⁻¹ s⁻¹.

B3: H14L18 (antibody, human IgG1, kappa, V domains shown)
VH: B1 VH with K12V, V20L, R38K, M48I, V68A, M70L, V79A
VL: B1 VL with I4M, S7D, L11N, A19V, Q42L, P64S, G70S
notes: Humanised 2A10; human gamma-1 mutated constant region, human kappa
In the test with GST-human NOGO-A56 [1], B3 gave an equilibrium dissociation constant (Kd) of 3.6 nM, a koff of 0.00869 s⁻¹ and an on-rate (kon) of 2.41e+06 M⁻¹ s⁻¹. The molecule further gave a koff in the test with GST-human NOGO-A56 [5] of 0.00835 s⁻¹.

B4: H18L13 (antibody, human IgG1, kappa, V domains shown)
VH: QVQLVQSGAEVVKPGASVKLSCKASGYTFTSYWMHWVKQRPGQGLEWIGNINPSNGGTNYNEKFKSKATLTVDKSSSTAYMELSSLRSEDSAVYYCELGQGYWGQGTLVTVSS
VL: B1 VL with I4M
notes: Humanised 2A10; tested as CHO-K1 transfection supernatant; Human gamma-1 mutated constant region, human kappa
For B4, the koff with GST-human NOGO-A56 [5] is 0.00907 s⁻¹.

B5: H16L13 (antibody, human IgG1, kappa)
heavy: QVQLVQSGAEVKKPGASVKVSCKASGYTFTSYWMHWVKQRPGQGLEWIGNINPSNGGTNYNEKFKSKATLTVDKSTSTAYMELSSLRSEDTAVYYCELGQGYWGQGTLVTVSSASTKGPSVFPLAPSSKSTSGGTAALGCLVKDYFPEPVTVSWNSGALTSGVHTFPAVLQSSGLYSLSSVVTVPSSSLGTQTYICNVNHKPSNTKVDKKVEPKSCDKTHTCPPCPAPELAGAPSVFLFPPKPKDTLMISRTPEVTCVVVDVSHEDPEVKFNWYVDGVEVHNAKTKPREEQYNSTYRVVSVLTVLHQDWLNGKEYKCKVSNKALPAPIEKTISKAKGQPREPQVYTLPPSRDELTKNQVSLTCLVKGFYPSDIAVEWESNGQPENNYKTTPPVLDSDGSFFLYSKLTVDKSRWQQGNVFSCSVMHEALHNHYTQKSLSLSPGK
light: DIVMTQSPLSLPVTLGQPASISCRSSKSLLYKDGKTYLNWFQQRPGQSPQLLIYLMSTRASGVPDRFSGGGSGTDFTLKISRVEAEDVGVYYCQQLVEYPLTFGQGTKLEIKRTVAAPSVFIFPPSDEQLKSGTASVVCLLNNFYPREAKVQWKVDNALQSGNSQESVTEQDSKDSTYSLSSTLTLSKADYEKHKVYACEVTHQGLSSPVTKSFNRGEC
notes: as for B4
The molecule B5 had a koff with GST-human NOGO-A56 [5] of 0.00907 s⁻¹.

B6: H17L13 (antibody, human IgG1, kappa)
heavy: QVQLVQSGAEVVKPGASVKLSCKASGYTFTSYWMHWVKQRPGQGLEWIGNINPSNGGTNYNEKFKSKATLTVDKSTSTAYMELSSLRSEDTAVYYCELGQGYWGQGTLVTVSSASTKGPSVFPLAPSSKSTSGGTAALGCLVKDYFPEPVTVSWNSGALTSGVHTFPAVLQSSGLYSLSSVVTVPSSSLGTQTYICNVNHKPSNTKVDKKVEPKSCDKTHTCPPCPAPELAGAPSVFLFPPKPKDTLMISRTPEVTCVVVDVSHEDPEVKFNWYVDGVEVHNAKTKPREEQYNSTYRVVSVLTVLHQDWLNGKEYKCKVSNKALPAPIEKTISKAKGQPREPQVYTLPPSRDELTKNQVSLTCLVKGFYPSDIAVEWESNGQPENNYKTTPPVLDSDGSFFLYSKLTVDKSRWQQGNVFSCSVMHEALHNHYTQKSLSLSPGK
light: B5 light
notes: as for B4
B6 came in with a koff with GST-human NOGO-A56 [5] of 0.00931 s⁻¹.

B7: H16L16 (antibody, human IgG1, kappa)
heavy: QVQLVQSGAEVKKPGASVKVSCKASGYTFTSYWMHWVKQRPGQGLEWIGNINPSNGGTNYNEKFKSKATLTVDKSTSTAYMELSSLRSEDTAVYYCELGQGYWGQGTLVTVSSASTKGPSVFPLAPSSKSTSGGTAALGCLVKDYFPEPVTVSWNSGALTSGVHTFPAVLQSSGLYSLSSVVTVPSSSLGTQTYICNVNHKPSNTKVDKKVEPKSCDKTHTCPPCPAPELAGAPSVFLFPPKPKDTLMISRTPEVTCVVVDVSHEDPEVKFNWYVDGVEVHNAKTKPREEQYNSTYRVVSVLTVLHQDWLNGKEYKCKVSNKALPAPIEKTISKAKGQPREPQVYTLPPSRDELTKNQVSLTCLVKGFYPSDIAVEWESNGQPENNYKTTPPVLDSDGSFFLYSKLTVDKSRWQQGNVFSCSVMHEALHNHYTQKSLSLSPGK
light: B5 light with L11N, A19V, Q42L
notes: Humanised 2A10; human gamma-1 mutated constant region, human kappa; also called H16L16 FL
B7: the results for the equilibrium dissociation constant (Kd) in the test with GST-human NOGO-A56 [1] and with GST-human NOGO-A56 [2] were 1 nM and 1.26 nM, respectively. For the same molecule, the figures for the koff with GST-human NOGO-A56 [1], with GST-human NOGO-A56 [2] and with GST-human NOGO-A56 [3] were 0.00569 s⁻¹, 0.00554 s⁻¹ and 0.00664 s⁻¹, respectively. The association rate constant (kon) is 5.47e+06 M⁻¹ s⁻¹ with GST-human NOGO-A56 [1] and 4.37e+06 M⁻¹ s⁻¹ with GST-human NOGO-A56 [2].

B8: H14L16 (antibody, human IgG1, kappa, V domains shown)
VH: B4 VH with R40A, K67R, V72R, K74T, S76T, S91T
VL: B1 VL with I4M, L11N, A19V, Q42L
notes: as for B3
Turning to B8, in the test with GST-human NOGO-A56 [1], the Kd was determined as 3.6 nM, the koff amounted to 0.00739 s⁻¹ and the kon came out at 2.05e+06 M⁻¹ s⁻¹. In the test with GST-human NOGO-A56 [5], the koff stood at 0.0089 s⁻¹.

B9: H16L18 (antibody, human IgG1, kappa, V domains shown)
VH: B4 VH with V12K, L20V, S76T, S91T
VL: B1 VL with I4M, S7D, L11N, A19V, Q42L, P64S, G70S
notes: Humanised 2A10; human gamma-1 mutated constant region, human kappa; also called H16L18 FL
As for B9, in the test with GST-human NOGO-A56 [2], the Kd is 1.33 nM, the dissociation rate constant (koff) was determined as 0.00552 s⁻¹ and the kon worked out at 4.18e+06 M⁻¹ s⁻¹. In the test with GST-human NOGO-A56 [3], the off-rate (koff) is 0.00609 s⁻¹.

B10: H18L18 (antibody, human IgG1, kappa, V domains shown)
VH: B4 VH
VL: B1 VL with I4M, S7D, L11N, A19V, Q42L, P64S, G70S
notes: as for B4
The molecule B10 showed an off-rate (koff) in the test with GST-human NOGO-A56 [5] of 0.0058 s⁻¹.

Source of the values: patent publication US20110054149A1 (published 2011).
